Literature values in publication PMC4815360.

Assays:
[1] = target: Endothelin receptor ETA (Rattus norvegicus) (UniProt P26684); assay: radioligand
[2] = target: Endothelin receptor ETA (Homo sapiens) (UniProt P25101); assay: radioligand
[3] = target: Endothelin receptor ETA (Rattus norvegicus) (UniProt P26684); assay: radioligand binding
[4] = target: Endothelin receptor ETA (Homo sapiens) (UniProt P25101); assay: saturation radioligand binding

Chain of UniProt P26684 (P26684 21-426): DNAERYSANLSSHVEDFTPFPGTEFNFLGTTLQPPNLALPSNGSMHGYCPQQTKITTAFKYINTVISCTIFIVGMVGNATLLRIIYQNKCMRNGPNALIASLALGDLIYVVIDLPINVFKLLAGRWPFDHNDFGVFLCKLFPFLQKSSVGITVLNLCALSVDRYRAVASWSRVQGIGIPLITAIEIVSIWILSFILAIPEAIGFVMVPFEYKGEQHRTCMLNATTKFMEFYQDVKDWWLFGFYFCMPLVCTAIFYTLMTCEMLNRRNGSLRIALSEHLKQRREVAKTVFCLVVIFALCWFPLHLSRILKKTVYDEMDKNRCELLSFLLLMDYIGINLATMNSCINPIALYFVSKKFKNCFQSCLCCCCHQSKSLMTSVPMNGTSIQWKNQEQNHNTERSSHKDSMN
Chain of UniProt P25101 (P25101 21-427): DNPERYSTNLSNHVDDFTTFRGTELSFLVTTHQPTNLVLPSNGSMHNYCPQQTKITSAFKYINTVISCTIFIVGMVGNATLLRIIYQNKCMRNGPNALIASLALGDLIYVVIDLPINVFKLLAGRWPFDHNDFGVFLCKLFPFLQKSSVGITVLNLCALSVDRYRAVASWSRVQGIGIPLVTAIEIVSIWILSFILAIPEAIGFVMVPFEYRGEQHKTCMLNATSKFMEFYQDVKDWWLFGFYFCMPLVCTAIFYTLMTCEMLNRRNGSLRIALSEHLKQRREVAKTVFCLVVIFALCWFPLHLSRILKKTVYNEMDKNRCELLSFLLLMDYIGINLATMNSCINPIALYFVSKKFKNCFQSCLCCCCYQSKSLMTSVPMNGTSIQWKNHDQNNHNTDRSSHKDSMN

Kd [1] | Kd [2] | Kd [3] | Kd [4] | Substance
100 pM | 400 pM | – | – | Endothelin-1 (from UniProt P05305)
– | – | 100 pM | 700 pM | Endothelin-2 (from UniProt P20800)
